Here are results for seven molecules from US20230265179A1 (TWIST BIOSCIENCE, published 2023).

Assay [1] deals with T1, IL1RL1 (UniProt Q01638 19-328, limits assumed).
T1 construct: SPR analyte
T1 sequence (looked up): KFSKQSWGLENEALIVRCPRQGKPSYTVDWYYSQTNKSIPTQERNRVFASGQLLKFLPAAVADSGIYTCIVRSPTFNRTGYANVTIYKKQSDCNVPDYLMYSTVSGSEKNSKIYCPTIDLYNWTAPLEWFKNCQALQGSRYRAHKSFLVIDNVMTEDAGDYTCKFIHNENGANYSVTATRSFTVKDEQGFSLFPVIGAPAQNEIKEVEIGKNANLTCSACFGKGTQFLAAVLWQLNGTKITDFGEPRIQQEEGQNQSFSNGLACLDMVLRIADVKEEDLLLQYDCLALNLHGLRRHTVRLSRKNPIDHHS
The assay is described as follows: SPR (Carterra LSA), antibody amine-coupled.
Method: SPR experiments were performed on a Carterra LSA SPR biosensor equipped with a HC30M chip at 25° C. in HBS-TE. Antibodies were diluted to 10 μg/mL and amine-coupled to the sensor chip by EDC/NHS activation, followed by ethanolamine HCl quenching. Increasing concentrations of analyte were flowed over the sensor chip in HBS-TE with 0.5 mg/mL BSA with 5-minute association and 15-minute dissociation. Following each injection cycle the surface was regenerated with 2× 30-second injections of IgG elution buffer (Thermo). Data were analyzed in Carterra's Kinetics Tool software with 1:1 binding model.

The target of assay [2] is T2, IL1RL1 over-expressed on Expi293 cells (UniProt Q01638 19-556, limits assumed).
T2 construct: whole, on cells; Target of the flow cytometry MFI ratio (over-expressing cells over parent cells); also called cytokine over-expressing Expi293 cells
T2 sequence (looked up): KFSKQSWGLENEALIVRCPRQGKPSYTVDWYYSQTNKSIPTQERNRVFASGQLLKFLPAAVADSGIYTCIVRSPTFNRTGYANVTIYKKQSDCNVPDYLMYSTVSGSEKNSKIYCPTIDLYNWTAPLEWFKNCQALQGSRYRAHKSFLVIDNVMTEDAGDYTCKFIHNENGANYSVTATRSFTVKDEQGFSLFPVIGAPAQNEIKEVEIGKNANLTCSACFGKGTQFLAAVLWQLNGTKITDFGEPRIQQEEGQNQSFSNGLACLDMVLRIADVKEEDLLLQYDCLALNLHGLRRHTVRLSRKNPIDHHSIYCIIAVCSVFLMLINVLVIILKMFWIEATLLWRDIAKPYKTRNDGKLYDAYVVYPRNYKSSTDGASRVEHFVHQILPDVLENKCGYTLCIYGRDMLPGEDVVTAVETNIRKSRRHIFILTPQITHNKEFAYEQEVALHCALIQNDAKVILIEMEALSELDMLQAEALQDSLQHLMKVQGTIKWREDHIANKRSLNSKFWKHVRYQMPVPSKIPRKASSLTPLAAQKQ
The assay is described as follows: flow cytometry, 100 nM antibody, over-expressing Expi293 / parent cells.
Method: All incubations and washes were in buffer containing PBS+1% BSA. MFI Ratio is defined by the mean fluorescence intensity (MFI) of the cytokine over-expressing Expi293 cell over the Expi293 parent cell. […] EC50 was calculated in GraphPad Prism.

B1: IL1RL1-48 (Fc fusion, not shown: a dimerising Fc or GST)
VHH: EVQLVESGGGLVQPGGSLRLSCAASGTTFSSDVMGWFRQAPGKERELVAVIIDSRTTKYADSVKGRFTISADNSKNTAYLQMNSLKPEDTAVYYCAAVGGATTVTASEWDWGQGTLVTVSS
notes: VHH-Fc on IgG2 Fc
In the case of B1, the binding result in assay [1] was “no binding”. In addition, the “100 nM FACS (MFI Ratio)” value in assay [2] was determined as 1.06 MFI ratio.

B2: IL1RL1-77 (Fc fusion, not shown: a dimerising Fc or GST)
VHH: EVQLVESGGGLVQPGGSLRLSCAASGRTFSSYVMGWFRQAPGKEREFVAVIIDSRTTKYADSVKGRFTISADNSKNTAYLQMNSLKPEDTAVYYCAAVGGATTVTASEWDWGQGTLVTVSS
notes: VHH-Fc on IgG2 Fc
On to B2, for which the binding result in assay [1] is “no binding”. For the same molecule, in assay [2], the “100 nM FACS (MFI Ratio)” value is 1.12 MFI ratio.

B3: IL1RL1-51 (Fc fusion, not shown: a dimerising Fc or GST)
VHH: EVQLVESGGGLVQPGGSLRLSCAASGVTLDLYAMGWFRQAPGKEREWVSSIGIAGTPTFYADSVKGRFTISADNSKNTAYLQMNSLKPEDTAVYYCAANYGGSVLYNWGQGTLVTVSS
notes: VHH-Fc on IgG2 Fc
Consider B3, for which the binding result in assay [1] was “no binding”. The “100 nM FACS (MFI Ratio)” value in assay [2] was found to be 1.28 MFI ratio.

B4: IL1RL1-37 (Fc fusion, not shown: a dimerising Fc or GST)
VHH: EVQLVESGGGLVQPGGSLRLSCAASGGTFGSYAMGWFRQAPGKEREFVAAINWSGARTYYADSVKGRFTISADNSKNTAYLQMNSLKPEDTAVYYCAVSQPLNYYTYYDARRYDWGQGTLVTVSS
notes: VHH-Fc on IgG2 Fc
B4: the binding result in assay [1] is on record as “no binding”. Moreover, the “100 nM FACS (MFI Ratio)” value in assay [2] is 1.25 MFI ratio.

B5: IL1RL1-41 (Fc fusion, not shown: a dimerising Fc or GST)
VHH: EVQLVESGGGLVQPGGSLRLSCAASGGTLSSYIMGWFRQAPGKEREGVAAIDSDGSTSYADSVKGRFTISADNSKNTAYLQMNSLKPEDTAVYYCAARPVRVDDISLPVGFDWGQGTLVTVSS
notes: VHH-Fc on IgG2 Fc
For the molecule B5, in assay [1], the binding result was “no binding”. Besides, the “100 nM FACS (MFI Ratio)” value in assay [2] came out at 0.55 MFI ratio.

B6: IL1RL1-43 (Fc fusion, not shown: a dimerising Fc or GST)
VHH: EVQLVESGGGLVQPGGSLRLSCAASGRTYAMGWFRQAPGKEREWVASISTSGSTITPYADSVKGRFTISADNSKNTAYLQMNSLKPEDTAVYYCAANVASGLKILQWGQGTLVTVSS
notes: VHH-Fc on IgG2 Fc
For the molecule B6, the binding result in assay [1] is given as “no binding”. The “100 nM FACS (MFI Ratio)” value in assay [2] is 1.25 MFI ratio.

B7: IL1RL1-42 (Fc fusion, not shown: a dimerising Fc or GST)
VHH: EVQLVESGGGLVQPGGSLRLSCAASGFILDYYAMGWFRQAPGKEREWVSSIGIAGTPTFYADSVKGRFTISADNSKNTAYLQMNSLKPEDTAVYYCAGRLSNGLDWGQGTLVTVSS
notes: VHH-Fc on IgG2 Fc
B7: the binding result in assay [1] was “no binding”. Besides, the “100 nM FACS (MFI Ratio)” value in assay [2] came to 0.86 MFI ratio.
